Experimental data published in paper PMC7246905, “Exploring the Enzymatic and Antibacterial Activities of Novel Mycobacteriophage Lysin B Enzymes” (International Journal of Molecular Sciences, 2020).
Like-named read-outs stand apart in the source and are kept apart here.

Assays:
Settings in all cases: 20 mM Tris-HCl, 100 mM NaCl, 0.1% Triton X-100, pH 8, 37 °C
[1] = test system: LysB-Obama12 (LysB-His6); assay: p-nitrophenol release at […] nm, Michaelis-Menten; assay type: biochemical, Mycobacterium phage Obama12
[2] = substrate: CCCCCCCCCCCC(=O)Oc1ccc([N+](=O)[O-])cc1; assay: purified protein; assay type: biochemical, Fromanvirus D29
[3] = substrate: CCCC(=O)Oc1ccc([N+](=O)[O-])cc1; assay: purified protein; assay type: biochemical, Fromanvirus D29
[4] = substrate: CCCCCCCCCCCCCCCC(=O)Oc1ccc([N+](=O)[O-])cc1; assay: purified protein; assay type: biochemical, Fromanvirus D29
[5] = substrate: CCCCCCCC(=O)Oc1ccc([N+](=O)[O-])cc1; assay: purified protein; assay type: biochemical, Fromanvirus D29
[6] = substrate: CCCCCCCCCCCCCC(=O)Oc1ccc([N+](=O)[O-])cc1; assay: purified protein; assay type: biochemical, Fromanvirus D29
[7] = substrate: CCCCCCCCCCCC(=O)Oc1ccc([N+](=O)[O-])cc1; assay: purified protein; assay type: biochemical, Mycobacterium phage Omega
[8] = substrate: CCCC(=O)Oc1ccc([N+](=O)[O-])cc1; assay: purified protein; assay type: biochemical, Mycobacterium phage Omega
[9] = substrate: CCCCCCCCCCCCCCCC(=O)Oc1ccc([N+](=O)[O-])cc1; assay: purified protein; assay type: biochemical, Mycobacterium phage Omega
[10] = substrate: CCCCCCCC(=O)Oc1ccc([N+](=O)[O-])cc1; assay: purified protein; assay type: biochemical, Mycobacterium phage Omega
[11] = substrate: CCCCCCCCCCCCCC(=O)Oc1ccc([N+](=O)[O-])cc1; assay: purified protein; assay type: biochemical, Mycobacterium phage Omega
[12] = substrate: CCCCCCCCCCCC(=O)Oc1ccc([N+](=O)[O-])cc1; assay: purified protein; assay type: biochemical, Mycobacterium phage Saal
[13] = substrate: CCCC(=O)Oc1ccc([N+](=O)[O-])cc1; assay: purified protein; assay type: biochemical, Mycobacterium phage Saal
[14] = substrate: CCCCCCCCCCCCCCCC(=O)Oc1ccc([N+](=O)[O-])cc1; assay: purified protein; assay type: biochemical, Mycobacterium phage Saal
[15] = substrate: CCCCCCCC(=O)Oc1ccc([N+](=O)[O-])cc1; assay: purified protein; assay type: biochemical, Mycobacterium phage Saal
[16] = substrate: CCCCCCCCCCCCCC(=O)Oc1ccc([N+](=O)[O-])cc1; assay: purified protein; assay type: biochemical, Mycobacterium phage Saal

Work on CCCC(=O)Oc1ccc([N+](=O)[O-])cc1 [p-nitrophenyl butyrate] yielded a Km ([1]; read-out: pNPB (C4)) of 1270 ± 60 µM.

Work on CCCCCCCC(=O)Oc1ccc([N+](=O)[O-])cc1 [p-nitrophenyl octanoate] yielded a Km ([1]; read-out: pNPO (C8)) of 2670 ± 46.5 µM.

Molecule CCCCCCCCCCCC(=O)Oc1ccc([N+](=O)[O-])cc1 [p-nitrophenyl laurate] has a Km ([1]; read-out: pNPL (C12)) of 3000 ± 20.1 µM.

Molecule CCCCCCCCCCCCCCCC(=O)Oc1ccc([N+](=O)[O-])cc1 [p-nitrophenyl palmitate] has a Km ([1]; read-out: pNPP (C16)) of 800 ± 22.1 µM.

In the case of CCCCCCCCCCCCCC(=O)Oc1ccc([N+](=O)[O-])cc1 [p-nitrophenyl myristate], the Km ([1]; read-out: pNPM (C14)) is reported as 1270 ± 86.4 µM.

B1: LysB-D29 (LysB-His6) (Fromanvirus D29) (protein)
chain: MSKPWLFTVHGTGQPDPLGPGLPADTARDVLDIYRWQPIGNYPAAAFPMWPSVEKGVAELILQIELKLDADPYADFAMAGYSQGAIVVGQVLKHHILPPTGRLHRFLHRLKKVIFWGNPMRQKGFAHSDEWIHPVAAPDTLGILEDRLENLEQYGFEVRDYAHDGDMYASIKEDDLHEYEVAIGRIVMKASGFIGGRDSVVAQLIELGQRPITEGIALAGAIIDALTFFARSRMGDKWPHLYNRYPAVEFLRQI
Work on B1 yielded a Km [2] of 19.6 ± 3.094 µM, a Vmax [2] of 7.55 µmol/min/mg and a kcat [2] of 0.738 ± 0.026 s⁻¹. For the same molecule, the kcat/Km [2] was 37700 ± 6030 M⁻¹ s⁻¹, the Km [3] was 422.6 ± 29.4 µM and the Vmax [3] was 122 µmol/min/mg. The kcat [3] was 11.9 ± 0.187 s⁻¹, the kcat/Km [3] was 28300 ± 6130 M⁻¹ s⁻¹ and the Km [4] was 37.7 ± 7.134 µM. For the same molecule, the Vmax [4] was 2.73 µmol/min/mg, the kcat [4] was 0.242 ± 0.0168 s⁻¹ and the kcat/Km [4] was 6330 ± 783 M⁻¹ s⁻¹. It also gave a Km [5] of 42.3 ± 0.445 µM, a Vmax [5] of 9.85 µmol/min/mg and a kcat [5] of 0.961 ± 0.213 s⁻¹. It also gave a kcat/Km [5] of 22700 ± 723 M⁻¹ s⁻¹, a Km [6] of 24.08 ± 0.505 µM and a Vmax [6] of 3 µmol/min/mg. For the same molecule, the kcat [6] was 0.294 ± 0.0159 s⁻¹ and the kcat/Km [6] was 12200 ± 512 M⁻¹ s⁻¹.

B2: LysB-Omega (LysB-His6) (Mycobacterium phage Omega) (protein)
chain: MSLWPEIRAMLNGEFYVPAGTIITANGTGVPDGAGPGFGADLARELERVAEGMWIWKWINYPAAVMPMRPSINTLRLALKEMIRTTPGKIVLSAYSQSAVAFAYVWRDDILNPDGELHDRLDDIVAVILYGNPVRAPGIAYGNELGGQSAPGKLNGHVTGGIAGPDCLRPEECVHPVTGRRIVLDFANAGDLYAAAPVGAEPWVKETEVGHNETLIYEAVMDFNGRDILAFAKEIAQILTMPLSQVVPLVQAIINGLSFLVQGPKAPHWTYTIGPAVDYLVRTGNELRKN
B2 was tested, and the Km [7] was 280.8 ± 3.26 µM, the Vmax [7] was 79.8 µmol/min/mg and the kcat [7] was 8.4 ± 0.339 s⁻¹. The kcat/Km [7] was 40200 ± 2260 M⁻¹ s⁻¹, the Km [8] was 618.8 ± 24.98 µM and the Vmax [8] was 112 µmol/min/mg. The kcat [8] was 11.7 ± 0.313 s⁻¹, the kcat/Km [8] was 19000 ± 733 M⁻¹ s⁻¹ and the Km [9] was 24.4 ± 3.116 µM. For the same molecule, the Vmax [9] was 1.45 µmol/min/mg, the kcat [9] was 0.152 ± 0.0184 s⁻¹ and the kcat/Km [9] was 6230 ± 4950 M⁻¹ s⁻¹. It also gave a Km [10] of 193.3 ± 2.258 µM, a Vmax [10] of 15.7 µmol/min/mg and a kcat [10] of 7.54 ± 0.165 s⁻¹. For the same molecule, the kcat/Km [10] was 39000 ± 6070 M⁻¹ s⁻¹, the Km [11] was 98.72 ± 5.292 µM and the Vmax [11] was 22.3 µmol/min/mg. The kcat [11] was 2.35 ± 0.0785 s⁻¹ and the kcat/Km [11] was 23800 ± 783 M⁻¹ s⁻¹.

B3: LysB-Saal (LysB-His6) (Mycobacterium phage Saal) (protein)
chain: MRIDGQYVGLGLGDSSDEIRKIKAFMRRKFASYAGDLADTPLYDEAMTAAVAEMQARYSAAGQLRAGLYIPGIVGAETKYVMGYLPRPVVDTRPVLITVCGTGVPWWIGPDADTARAVEDKYLWQPIGYPAAPFPMGKSIAAAITETHNQANRWRERIETHGAALAGYSQGAVVVSELWMNHIAPEDGSLHWMKPHIEKAVTWGNPNRELGHVWADHGGSPRAPSNTQGVSSNGMRDTPPWWRDYAHQGDLYACTEPGDTQEVRNAIWQIVRDLDLFTGPDSLLAQVVELVQAPLPEAIAITKALLDAGMFFAKRTGPHVDYNVQPAIDYLRT
Work on B3 yielded a Km [12] of 1476.39 ± 33.184 µM, a kcat/Km [12] of 71800 ± 3350 M⁻¹ s⁻¹ and a Km [13] of 4172.12 ± 20.104 µM. For the same molecule, the kcat/Km [13] was 44700 ± 7630 M⁻¹ s⁻¹, the Km [14] was 2833.32 ± 40.824 µM and the kcat/Km [14] was 19700 ± 2420 M⁻¹ s⁻¹. For the same molecule, the Km [15] was 1519.25 ± 38.596 µM, the kcat/Km [15] was 20300 ± 230 M⁻¹ s⁻¹ and the Km [16] was 956.7 ± 12.93 µM. The kcat/Km [16] was 54000 ± 3520 M⁻¹ s⁻¹.
